First the molecules themselves.
T1: β-catenin (UniProt P35222 134-665, limits assumed, biotinylated in the SPR and plate assays)
T1 construct: also called beta catenin; biotinylated β-catenin
T1 sequence (looked up): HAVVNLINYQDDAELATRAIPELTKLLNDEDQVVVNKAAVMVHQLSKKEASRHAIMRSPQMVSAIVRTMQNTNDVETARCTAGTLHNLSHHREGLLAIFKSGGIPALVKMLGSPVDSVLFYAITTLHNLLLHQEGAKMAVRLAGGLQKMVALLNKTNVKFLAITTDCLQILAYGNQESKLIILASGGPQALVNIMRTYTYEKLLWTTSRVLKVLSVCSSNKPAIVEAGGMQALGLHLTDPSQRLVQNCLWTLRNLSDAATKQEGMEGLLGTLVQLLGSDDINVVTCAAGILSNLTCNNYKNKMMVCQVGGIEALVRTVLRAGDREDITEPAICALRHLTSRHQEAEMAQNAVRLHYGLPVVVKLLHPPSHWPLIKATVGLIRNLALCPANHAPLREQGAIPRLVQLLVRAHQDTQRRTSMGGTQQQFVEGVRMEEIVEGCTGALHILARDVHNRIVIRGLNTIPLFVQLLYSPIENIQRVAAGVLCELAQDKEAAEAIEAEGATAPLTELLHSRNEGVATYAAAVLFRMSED

B1: SEQ ID NO: 175 (peptide)
peptide: DWFLICFWKG
HELM: PEPTIDE1{[ac].D.W.F.L.I.C.F.W.K.G}$PEPTIDE1,PEPTIDE1,2:R3-10:R3$$$V2.0
SMILES: CC[C@H](C)[C@@H]1NC(=O)[C@H](CC(C)C)NC(=O)[C@H](Cc2ccccc2)NC(=O)[C@H](Cc2c[nH]c3ccccc23)NC(=O)[C@@H](NC(C)=O)CC(=O)NCCCC[C@@H](C(=O)NCC(=O)O)NC(=O)[C@H](Cc2c[nH]c3ccccc23)NC(=O)[C@H](Cc2ccccc2)NC(=O)[C@H](CS)NC1=O
B2: SEQ ID NO: 225 (peptide)
peptide: MWILISFWG
HELM: PEPTIDE1{[CC(C)(C)C(=O)[*:2]].M.W.I.L.I.S.F.W.G}$$$$V2.0
SMILES: CC[C@H](C)[C@H](NC(=O)[C@H](CC(C)C)NC(=O)[C@@H](NC(=O)[C@H](Cc1c[nH]c2ccccc12)NC(=O)[C@H](CCSC)NC(=O)C(C)(C)C)[C@@H](C)CC)C(=O)N[C@@H](CO)C(=O)N[C@@H](Cc1ccccc1)C(=O)N[C@@H](Cc1c[nH]c2ccccc12)C(=O)NCC(=O)O
B3: SEQ ID NO: 176 (peptide)
peptide: DWFLICFWKG
HELM: PEPTIDE1{D.W.F.L.I.C.F.W.K.G}$PEPTIDE1,PEPTIDE1,1:R3-9:R3$$$V2.0
SMILES: CC[C@H](C)[C@@H]1NC(=O)[C@H](CC(C)C)NC(=O)[C@H](Cc2ccccc2)NC(=O)[C@H](Cc2c[nH]c3ccccc23)NC(=O)[C@@H](N)CC(=O)NCCCC[C@@H](C(=O)NCC(=O)O)NC(=O)[C@H](Cc2c[nH]c3ccccc23)NC(=O)[C@H](Cc2ccccc2)NC(=O)[C@H](CS)NC1=O
B4: SEQ ID NO: 261 (peptide)
peptide: KWALIXAWD
HELM: PEPTIDE1{[ac].K.W.[Cha].L.I.[Abu].A.W.D}$PEPTIDE1,PEPTIDE1,2:R3-10:R3$$$V2.0
SMILES: CC[C@@H]1NC(=O)[C@H]([C@@H](C)CC)NC(=O)[C@H](CC(C)C)NC(=O)[C@H](CC2CCCCC2)NC(=O)[C@H](Cc2c[nH]c3ccccc23)NC(=O)[C@@H](NC(C)=O)CCCCNC(=O)C[C@@H](C(=O)O)NC(=O)[C@H](Cc2c[nH]c3ccccc23)NC(=O)[C@H](C)NC1=O
B5: SEQ ID NO: 189 (peptide)
peptide: XMWFLICFWD
HELM: PEPTIDE1{[O=C(CCCCCN[*:1])[*:2]].M.W.F.L.I.C.F.W.D}$PEPTIDE1,PEPTIDE1,1:R1-10:R3$$$V2.0
SMILES: CC[C@H](C)[C@@H]1NC(=O)[C@H](CC(C)C)NC(=O)[C@H](Cc2ccccc2)NC(=O)[C@H](Cc2c[nH]c3ccccc23)NC(=O)[C@H](CCSC)NC(=O)CCCCCNC(=O)C[C@@H](C(=O)O)NC(=O)[C@H](Cc2c[nH]c3ccccc23)NC(=O)[C@H](Cc2ccccc2)NC(=O)[C@H](CS)NC1=O
B6: SEQ ID NO: 192 (peptide)
peptide: XMWFLICAWD
HELM: PEPTIDE1{[O=C(CCCCCN[*:1])[*:2]].M.W.F.L.I.C.A.W.D}$PEPTIDE1,PEPTIDE1,1:R1-10:R3$$$V2.0
SMILES: CC[C@H](C)[C@@H]1NC(=O)[C@H](CC(C)C)NC(=O)[C@H](Cc2ccccc2)NC(=O)[C@H](Cc2c[nH]c3ccccc23)NC(=O)[C@H](CCSC)NC(=O)CCCCCNC(=O)C[C@@H](C(=O)O)NC(=O)[C@H](Cc2c[nH]c3ccccc23)NC(=O)[C@H](C)NC(=O)[C@H](CS)NC1=O
B7: Peptide 2 (SEQ ID NO: 215) (peptide)
peptide: KLWALIXAWD
HELM: PEPTIDE1{[ac].K.[Nle].W.[Cha].L.I.[Abu].A.W.D}$PEPTIDE1,PEPTIDE1,2:R3-11:R3$$$V2.0
SMILES: CCCC[C@@H]1NC(=O)[C@@H](NC(C)=O)CCCCNC(=O)C[C@@H](C(=O)O)NC(=O)[C@H](Cc2c[nH]c3ccccc23)NC(=O)[C@H](C)NC(=O)[C@H](CC)NC(=O)[C@H]([C@@H](C)CC)NC(=O)[C@H](CC(C)C)NC(=O)[C@H](CC2CCCCC2)NC(=O)[C@H](Cc2c[nH]c3ccccc23)NC1=O
notes: also called Cyclo-acetyl-K*Nle-W-3-cyclohexyl-L-alanine-LI-(amino butyric acid-AWD*-COOH)

Where “and” joins values, the source holds several entries; their conditions need not be identical. Identical values can stand only once. Bridges are numbered along the chain shown (N, C = ends). Primed or numbered codes have the meaning given here. [ ]: non-standard residue; d: D form. αMeF = C[C@](N)(Cc1ccccc1)C(=O)O; Bz′ = not defined here; Ppa = not defined here; Sar = CNCC(=O)O

The first test concerns the target T1, β-catenin. The experiment in a line: competitive FP. The procedure, abridged:
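Competitive fluorescence polarization with inhibitor peptide serially diluted from 10 nM to 30 uM; polarization read at 470 nm excitation, 520 nm emission. Experiments performed three times.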
The term Kd denotes the equilibrium constant for the complex coming apart. With B1, the Kd was > 10 µM and ≤ 30 µM.

As for H-MW[αMeF]LISFWG-OH [SEQ ID NO: 133], the Kd was at most 0.4 µM.

For the molecule Ac-MWLLISFWG-OH [SEQ ID NO: 218], the Kd is at most 0.4 µM.

Consider Ac-MWILISFW[Sar]-OH [SEQ ID NO: 221], for which the Kd is at most 0.4 µM.

For the molecule {Bz′}-MWILISFWG-OH [SEQ ID NO: 223], the Kd was at most 0.4 µM.

Turning to Ppa-MWILISFWG-OH (reading uncertain; also: printed as Ppa-MWILISFWG-COOH, also called Hit 2) [SEQ ID NO: 224], the dissociation constant Kd is at most 0.4 µM.

B2: the Kd is > 0.4 µM and ≤ 1 µM.

For [Ado]MWFLICFWD-OH (lactam N-10) [SEQ ID NO: 190], the Kd was > 0.4 µM and ≤ 1 µM.

With Ac-MWFLISFWG-OH [SEQ ID NO: 219], the Kd is > 0.4 µM and ≤ 1 µM.

Take B3: the Kd is > 10 µM and ≤ 30 µM.

In the case of B4, the Kd is > 0.4 µM and ≤ 1 µM.

Consider B5, for which the Kd was > 0.4 µM and ≤ 1 µM.

The molecule B6 had a Kd of at most 0.4 µM.

On to [Ado]MWFLICAWD-OH (lactam N-10) [SEQ ID NO: 193], for which the Kd is > 0.4 µM and ≤ 1 µM.

For the molecule B7, the Kd is at most 0.4 µM.

With Ac-WFLIAFWG-OH [SEQ ID NO: 196], the Kd is > 0.4 µM and ≤ 1 µM.

With Ac-WFLISFWG-OH (also called Hit 5) [SEQ ID NO: 220], the Kd is > 0.4 µM and ≤ 1 µM.

Molecule Ac-WILISFWG-OH [SEQ ID NO: 195] gave a Kd of at most 0.4 µM.

On to Ac-WFLICFWG-OH [SEQ ID NO: 194], for which the Kd was > 0.4 µM and ≤ 1 µM.

The next test addresses T1, β-catenin. The experiment in a line: cell-based or functional assay.
Turning to B1, the “Wnt Reporter EC50” value is > 7.5 µM and ≤ 15 µM.

Regarding H-MW[αMeF]LISFWG-OH [SEQ ID NO: 133], the “Wnt Reporter EC50” value is over 30 µM.

For the molecule Ac-MWLLISFWG-OH [SEQ ID NO: 218], the “Wnt Reporter EC50” value was at most 7.5 µM.

For the molecule Ac-MWILISFW[Sar]-OH [SEQ ID NO: 221], the “Wnt Reporter EC50” value was at most 7.5 µM.

Regarding {Bz′}-MWILISFWG-OH [SEQ ID NO: 223], the “Wnt Reporter EC50” value is at most 7.5 µM.

Consider Ppa-MWILISFWG-OH (reading uncertain; also: printed as Ppa-MWILISFWG-COOH, also called Hit 2) [SEQ ID NO: 224], for which the “Wnt Reporter EC50” value was at most 7.5 µM.

B2: the “Wnt Reporter EC50” value was at most 7.5 µM.

In the case of [Ado]MWFLICFWD-OH (lactam N-10) [SEQ ID NO: 190], the “Wnt Reporter EC50” value was at most 7.5 µM.

As for Ac-MWFLISFWG-OH [SEQ ID NO: 219], the “Wnt Reporter EC50” value was at most 7.5 µM.

In the case of B3, the “Wnt Reporter EC50” value is > 7.5 µM and ≤ 15 µM.

With B4, the “Proliferation IC50, Endo cells” value was found to be 7.7 µM; the “Proliferation IC50, Wnt dependent cells” value stood at 4 µM; the “Wnt Reporter EC50” value was > 7.5 µM and ≤ 15 µM.

Take B5: the “Wnt Reporter EC50” value is at most 7.5 µM.

As for B6, the “Wnt Reporter EC50” value was at most 7.5 µM.

Turning to [Ado]MWFLICAWD-OH (lactam N-10) [SEQ ID NO: 193], the “Wnt Reporter EC50” value is at most 7.5 µM.

B7: the “Proliferation IC50, Endo cells” value is over 30 µM and the “Wnt Reporter EC50” value was over 30 µM.

As for Ac-WFLIAFWG-OH [SEQ ID NO: 196], the “Wnt Reporter EC50” value is at most 7.5 µM.

As for Ac-WFLISFWG-OH (also called Hit 5) [SEQ ID NO: 220], the “Wnt Reporter EC50” value was at most 7.5 µM.

For the molecule Ac-WILISFWG-OH [SEQ ID NO: 195], the “Wnt Reporter EC50” value is at most 7.5 µM.

Turning to Ac-WFLICFWG-OH [SEQ ID NO: 194], the “Wnt Reporter EC50” value is at most 7.5 µM.

Values taken from patent US20260098059A1 (ENDOMET BIOSCIENCES, published 2026).
